System: K4 kissing-loop RNA reporter
Assay: apparent KD of K4 kissing-loop reporter; higher = weaker reporter binding
Settings: Eterna round: R107
Method: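 RNA-MaP round R107: designed RNA switches with theophylline, tryptophan, arginine or FMN aptamers are transcribed on-chip within common flanks. They are titrated with a labelled K4 kissing-loop RNA reporter in RNA-MaP buffer (100 mM Tris pH 7.5, 80 mM KCl, 4 mM MgCl2), without ligand or with the indicated ligand. Median apparent KD per design.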

[1] = input ligand: theophylline 20 uM
[2] = input ligand: tryptophan 2.4 mM
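Also: bound reporter read as fluorescence of individual clusters on recovered sequencing chips by microscopy, with normalized cluster intensities fitted with a binding model.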

Row | Sequence | apparent KD of K4 kissing-loop reporter (input ligand: FMN 200 uM) | apparent KD of K4 kissing-loop reporter (input ligand: arginine 13.2 mM) | apparent KD of K4 kissing-loop reporter (input ligand: none) | apparent KD of K4 kissing-loop reporter [1] | apparent KD of K4 kissing-loop reporter [2]
1 | AGACCUCAGUGAUGUUGAGGUAACACUGAUACCAGCGACUUAAUUCGCCCUUGGCAGCAGUCCACCGAGGUAUCUGAUUAGGUCA [#24 K4 Theophylline A Exclusion] | 171 nM | 173 nM | 179 nM | 273 nM | 155 nM
2 | CUGCAACAUAACUUCUUCGUCCUAGAAGACUAGGAUAUCAGGAAACUGAGAAGGAGUCUCUGCAGUGAUGUUGCAGUUAGGACGA [KL-SSFMN-A7] | 139 nM | 135 nM | 115 nM | 160 nM | 138 nM
3 | GGUUCUCUGUUAGGAUAUAGAUUAGAGUGAUGUUCUAACGGCCCGGGCCCGAAAGGGCCCGGGCCGCUAGAAGGAACGGAGUUGG [#2 Same State - FMN A Attempt #1 (HarryS)] | 399 nM | 149 nM | 1100 nM | 538 nM | 444 nM
4 | AAAUAUUCGAGUGAUGUUCGAUAAAUAUCAGAGGAUAUGCUUAAAAGCAGAAGGCUGUAUUUCUAUUUGUUAUGUAAUUUUAUAA [JR_SSFMNA_Sub021] | 125 nM | 160 nM | 135 nM | 154 nM | 91.4 nM
5 | UGAUACCAGGCGGCCGCCACUCCUACAGGUCAAAGACCUGUAAAGCUGGUUCUCCAGUGAUGUUGGAGGACCGGGCCUGGUAUCU [FiskerMod 29 - Jieux - Exclusion - Tryptophan B] | 206 nM | 156 nM | 179 nM | 150 nM | 428 nM
6 | AAAAUUAAGGCCGAAUUAACUUCUUGCAUACGAGGACCGGUACGGCCGCCACUCGAGUCAAGUGAUGUUUGACAAUCUAUUAUUA [JR_ExcTryptoA_Sub010] | 81.2 nM | 124 nM | 110 nM | 138 nM | 128 nM
7 | GCGCGGCUCAGUGAUGUUGAGCCUCGGAGACGAGGACCGGUACGGCCGCCACUCGUCCGCGCAGCUGAGGCAAAAGCCUCGGCAA [Omei KL Tryp A SS B v3] | 201 nM | 195 nM | 189 nM | 186 nM | 141 nM
8 | AAAAUAAACUAGUGAUGUUGGUGUCCAGAUACCAGCGACGAAAGUCGCCCUUGGCAGCUGUGGACGUACAAAAUAAGUACGUCCU [MatMod 21 - Jieux - Same State - Theophylline A] | 319 nM | 183 nM | 345 nM | 198 nM | 289 nM
9 | GGCAUAUGGGCAGGAUAUAGGCAGGUAGAGUGAUGUUCUUUCUGAAUAAUUCCAUCCUUCUACCUACUAGAAGGGCCCAUAUGCC | 56.5 nM | 106 nM | 68.7 nM | 110 nM | 67.9 nM
10 | GCAGACCGCAGUGAUGUUGCGAAAUCGGAAGGAGCGCGUGAAAACGCAGGUAGGUCGCCGACACAGGGAUUAUAACCCUGUUUGC [Arginine A K4 16] | 173 nM | 196 nM | 207 nM | 176 nM | 154 nM
11 | UAAUGGUAAGUGAUGUUUACCUGGAACGAUACCAGUCGCCAUGAGGACCCUUGGCAGCGUCACACAGCCUUCUAGUUGUGGUCUU [theeternabot_sameState_KL_Theo_A_46] | 418 nM | 298 nM | 347 nM | 499 nM | 353 nM
12 | CGGGAAUUAGGUAUCGUCGAAAGCAAGAACCGAGGACCGGUACGGCCGCCACUCGCACCAGUGAUGUUGGUACAUUUGGUAUCCG [theeternabot_sameState_KL_Trp_A_31] | 115 nM | 112 nM | 134 nM | 103 nM | 132 nM
13 | GGGAGUAUUGCGGCCGCCACUGAGGAAGAAGAAGGCCAUAGUGAUGUUAUGGAGGAAAGGAAGAACAGGACCGGGCAGUAGAUUU [#22 K4 Tryptophan B Same State] | 154 nM | 157 nM | 175 nM | 188 nM | 127 nM
14 | UGACUGGAUGGAAGGAGCGCUAAACUCCUAGUGAUGUUAGGGAAACGAGACAAAGUCUCGAGGCAGGUAGGUCGCCAUCUAGUCU [FiskerMod 15 - Jieux - Same State - Arginine B] | 183 nM | 139 nM | 168 nM | 165 nM | 155 nM
15 | GUUACGCAUGGAAGGAGCGCACUCCGAUUGGACGACACAGUGAUGUUGUGGUUCGUUCGAAUGCAGGUAGGUCGCCAUGUGUAAC [Ex Arginine B K4 19] | 159 nM | 148 nM | 150 nM | 134 nM | 148 nM
16 | GGAUAGGACAGAGGAUAUGGUAGUGAUGUUACCAAACUGGUUACUUUUGUCAGAAAACUGGCAUUUCCAGAAGGCUGUCCUAUCG [KL-XFMN-B12] | 287 nM | 71 nM | 68.6 nM | 58 nM | 68.3 nM
17 | AAGUGUCAUUAGACACACUGAUGUAUAAACUAGGAUAUGCUGAUAAGCAGAAGGAGUGAUGUUCCUUUCAACAUCAGAAUUAAAU [KL-XFMN-A1] | 270 nM | 145 nM | 155 nM | 153 nM | 126 nM
18 | UGACUGGACUGAAGGAGCGUUGAAGGAGCGUAAGUAGUGAUGUUGCUUACAGGUAGGUCGCAGCAGGUAGGUCGCAGUCUAGUCU | 67.1 nM | 43.7 nM | 63 nM | 54.3 nM | 52.6 nM
19 | UAUUUAGUGACGGCCGCCACUAUUGUGAUUUAAUUGUUUGAGUGAUGUUUUGAUGUUUGAUUUUGUAGGACCGGGUUAUGUGUUA [tyttmullin] | 1020 nM | 745 nM | 827 nM | 791 nM | 749 nM
20 | UCCUAGGACUUCAGGCGAAAGCCCUGCGAAGGAGCGUGCGAAAGCACAGGUAGGUCGCGCAGUGAUGUUGCACCUAGGUAAUAAA [#SwitchBubble 20 #K4Late] | 481 nM | 656 nM | 489 nM | 1020 nM | 124 nM
21 | GUAGACGUGCCUUCAGUGAUGUUGAAGGAUACCAGAUGUUACCACAUCCCUUGGCAGCCUUGGGAUAACAGUGAGUCGGUAUAUG [Ontierso] | 255 nM | 200 nM | 297 nM | 253 nM | 247 nM
22 | AGAACUGUCUGAGAUACCAGCUAAGGAGUGAUGUUCCUAGGUCCACGAAAGUGGACCCAUAGCCCUUGGCAGCUCAGACAGUUCA [#23 K4 Theophylline B Same State] | 1280 nM | 833 nM | 1370 nM | 674 nM | 1160 nM

Row | Sequence | apparent KD of K4 kissing-loop reporter (input ligand: FMN 200 uM) | apparent KD of K4 kissing-loop reporter (input ligand: arginine 13.2 mM) | apparent KD of K4 kissing-loop reporter (input ligand: none) | apparent KD of K4 kissing-loop reporter [1] | apparent KD of K4 kissing-loop reporter [2]
23 | AACGCUGGAUGAAUAACAUCUAGCGAAAUUCGAGGACCGGUACGGCCGCCACUCGAGCUAACUGCGAGUGAUGUUCGAUAAUAAA [Mat - Mod of OpenEnded 3 - D5] | 228 nM | 466 nM | 327 nM | 469 nM | 71.4 nM
24 | GAUUGAGUGAUGUUCAAUUAGUAUCUAGAUACCAGAAUGUCUACCUUCCCUUGGCAGCUACUGACGGUGAUCAUUUCGCGCGCAG [theeternabot_sameState_KL_Theo_A_19] | 235 nM | 222 nM | 244 nM | 253 nM | 195 nM
25 | UCCUGCAAUCUGCCACGAAAGUGGAUGGAUACCAGAGUCGAAAGACUCCCUUGGCAGCCAGUGAUGUUGGAAGCAGGUAAAUAAA | 268 nM | 396 nM | 454 nM | 460 nM | 271 nM
26 | GUUAUGGACCUUUUGAUCGUUCGUAGCGAUACCAGACAAUGGGCAGUCCCUUGGCAGCGCUAAUUGAGUGAUGUUCAAACGUGCA [theeternabot_exclusion_KL_Theo_A_46] | 730 nM | 309 nM | 680 nM | 331 nM | 364 nM
27 | CAGCCUGGUCAGUGAUGUUGGCCGCAGGGAAAGGAUAUUGUGUUGGCAAGAAGGUUCGCUUGAUCGUUGGCCCAUGCAUGGGCCU [theeternabot_sameState_KL_FMN_A_44] | 186 nM | 180 nM | 197 nM | 280 nM | 183 nM
28 | GCAGUGAUGUUGCUGAUGUGCAGUGGUAGUCGAGGACCGGUACGGCCGCCACUCGGUGAGAAUUUGUUAAUACAUCGAUAAGUGA [XVI] | 968 nM | 558 nM | 788 nM | 509 nM | 707 nM
29 | GAUAUAUAGACGGCCGCCACUUAUAAAUUUCAGUGAUGUUGAAAUGUUAAAUAACGAACACAAUAGAGGACCGGGUCAAAUAUCG [Same State Tryptophan B GF 2] | 162 nM | 161 nM | 190 nM | 187 nM | 171 nM
30 | CGCAAGCAGCCAGUGAUGUUGGCCGCCUUGCGAGGACCGGUACGGCCGCCACUCGAAGGCGGCUACUGAUAAUCCGUCUAACGGA [KL-XTryp-A15] | 107 nM | 85.4 nM | 102 nM | 92.4 nM | 111 nM
31 | UUUCCAGUGAUGUUGGAGAAAACCGAGGAAGGAGCGGACUCUUGUCCAGGUAGGUCGCCUCGUCUCCCAUUGGCAGAGCGGACCC [Enlaonbian] | 232 nM | 239 nM | 249 nM | 574 nM | 211 nM
32 | GGCGGCCGCGCGCAAGCGCGGCCGGCCGAUACCAGCGCGACGGCGCGCCCUUGGCAGCGGCGCCGAGUGAUGUUCGGCCUGCCGG [#2 Same State - Theophylline A Attempt #16 (HarryS)] | 376 nM | 447 nM | 585 nM | 454 nM | 482 nM
33 | UCUGUGUCCGCGGCCGCCACUCGGGACUAAGUGAUGUUUAGUCCUUCAGAAUAAAGAAGUGAUGAGAGGACCGGGCGAUCGCACC [theeternabot_sameState_KL_Trp_B_2] | 100 nM | 81.9 nM | 99.6 nM | 72.3 nM | 102 nM
34 | UGUGUUUACCUGACUCAGUGAUGUUGAGAAGGAGCGUGCGAACGCACAGGUAGGUCGCUCAACCUAAAUUCAGGUGAGCACUAAA | 430 nM | 443 nM | 499 nM | 611 nM | 398 nM
35 | AUAUAUAACUGAAGGAGCGAGGCCAAAUAUAUAUAGUGAUGUUAUAUAAAGGCACAUAGGCCUCAGGUAGGUCGCAGAAUAAUAU [AstrosExyArGB#1] | 284 nM | 274 nM | 277 nM | 270 nM | 281 nM
36 | UCCCGAGUGAUGUUCGGCGCGGUCACCGAAGGAGCGGGCGAAAGCCCAGGUAGGUCGCGGUAGCGGAGUGAUUCUCCGCGACCGC [Same State Arginine A GF 24] | 509 nM | 241 nM | 286 nM | 344 nM | 298 nM
37 | UGAUACCAGACGGCCGCCACUAGGACCGGGAGUGAUGUUCCGAAAAUUAAAUGCUCGGCCGCCACUAGGACCGGGUCUGGUAUCU [TrypBX 28 #DoubleAptamer #SwitchBubble] | 478 nM | 253 nM | 308 nM | 349 nM | 128 nM
38 | AGGGUAAGGCGUUAACAUGACACCUGGGAAGGAGCGCGGUACACCGCAGGUAGGUCGCCCAGUGAUGUUGGGUGUAAGUAUGAGU [KL-XArg-A23] | 137 nM | 109 nM | 135 nM | 146 nM | 115 nM
39 | UGAACCGCCCAGUGAUGUUGGGCCAUAGAUACCAGCCUCUCCGACGGCCCUUGGCAGCUAGGGCCCGGCAGGUAGGAGACUCUGC [Orarzasove] | 199 nM | 220 nM | 272 nM | 239 nM | 204 nM
40 | UUGUUUGGUUGAGAGGUUGGGCGAGAUGAUACCAGUAGAGAAGAGUACCCUUGGCAGCAUAGGAGAGAUAUAGUGAUGUUGUAUA [SSTheophA.R] | 487 nM | 424 nM | 420 nM | 525 nM | 402 nM
41 | GGGAGGAGUGGUGUUGAUUAGGGAGCGGAAGGAGCGCCGAGGAAGGCAGGUAGGUCGCCGGAUUAUAGUGAUGUUAUGAAGAGGG [ExArg.J] | 663 nM | 716 nM | 679 nM | 1010 nM | 577 nM
42 | UCCUAGGCUCGAAAGAGCCUAGGAUUUACUCAGGAUAUCCGGAAACGGAGAAGGGAGUGACUAGUGAUGUUAGGGACUCCCUAUU | 93.1 nM | 81.7 nM | 87.9 nM | 85.2 nM | 94.4 nM
43 | UAUUCUAAUGCGGCCGCCACUGGAAGUGAUGUUUCCUCUGGCUAUCAUUUCGGACGGUAUUGUCCCAGGACCGGGCAUCCCUCUC [theeternabot_exclusion_KL_Trp_B_4] | 109 nM | 101 nM | 106 nM | 104 nM | 103 nM
